From patent US20140087995A1 (published 2014)
Numbered stars: 1 amine (or outer) side, 2 acyl side, 3 side chain; on linkers, the order of the positions; unused ones are H or OH. Bridge positions count the residues as written; N and C are the ends. Side chains are listed from the residue outwards. Ends that are not written are not given here. * marks the point of attachment. C20 diacid = O=C(O)CCCCCCCCCCCCCCCCCCC(=O)*; γGlu = O=C(O)[C@H](CCC(=O)[*:2])N[*:1]; AEEA = NCCOCCOCC(=O)O

T1: human calcitonin receptor (human, UniProt P30988 25-474)
T1 construct: whole, on cells; Assay used cell membranes of the transfected BHK cells; also called hCTR; hCT
T1 sequence (looked up): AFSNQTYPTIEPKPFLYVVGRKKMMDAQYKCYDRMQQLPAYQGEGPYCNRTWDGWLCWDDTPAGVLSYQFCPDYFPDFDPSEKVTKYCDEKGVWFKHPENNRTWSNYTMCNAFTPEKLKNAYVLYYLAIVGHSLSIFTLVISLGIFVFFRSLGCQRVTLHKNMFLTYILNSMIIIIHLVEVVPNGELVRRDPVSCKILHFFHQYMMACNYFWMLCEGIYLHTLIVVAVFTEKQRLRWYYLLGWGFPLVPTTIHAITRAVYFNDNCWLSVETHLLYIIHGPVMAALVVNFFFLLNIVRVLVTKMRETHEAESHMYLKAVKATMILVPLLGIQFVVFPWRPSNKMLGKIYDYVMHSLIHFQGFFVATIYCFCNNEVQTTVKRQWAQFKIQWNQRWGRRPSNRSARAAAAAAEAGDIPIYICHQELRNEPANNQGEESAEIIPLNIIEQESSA

B1: N^ε-[(4S)-4-carboxy-4-(19-carboxynonadecanoylamino)butanoyl]Lys[Arg1,Arg17,Pro21,Pro27,His35]-h-amylin (peptide)
peptide: K([γGlu-C20 diacid])RCNTATCATQRLANFLRHSSPNFGAIPSSTNVGSHTY-NH2
modifications: disulfide 3-8; N-terminus assumed
SMILES: CC[C@H](C)[C@H](NC(=O)[C@H](C)NC(=O)CNC(=O)[C@H](Cc1ccccc1)NC(=O)[C@H](CC(N)=O)NC(=O)[C@@H]1CCCN1C(=O)[C@H](CO)NC(=O)[C@H](CO)NC(=O)[C@H](Cc1c[nH]cn1)NC(=O)[C@H](CCCNC(=N)N)NC(=O)[C@H](CC(C)C)NC(=O)[C@H](Cc1ccccc1)NC(=O)[C@H](CC(N)=O)NC(=O)[C@H](C)NC(=O)[C@H](CC(C)C)NC(=O)[C@H](CCCNC(=N)N)NC(=O)[C@H](CCC(N)=O)NC(=O)[C@@H](NC(=O)[C@H](C)NC(=O)[C@@H]1CSSC[C@H](NC(=O)[C@H](CCCNC(=N)N)NC(=O)[C@@H](N)CCCCNC(=O)CC[C@H](NC(=O)CCCCCCCCCCCCCCCCCCC(=O)O)C(=O)O)C(=O)N[C@@H](CC(N)=O)C(=O)N[C@@H]([C@@H](C)O)C(=O)N[C@@H](C)C(=O)N[C@@H]([C@@H](C)O)C(=O)N1)[C@@H](C)O)C(=O)N1CCC[C@H]1C(=O)N[C@@H](CO)C(=O)N[C@@H](CO)C(=O)N[C@H](C(=O)N[C@@H](CC(N)=O)C(=O)N[C@H](C(=O)NCC(=O)N[C@@H](CO)C(=O)N[C@@H](Cc1c[nH]cn1)C(=O)N[C@H](C(=O)N[C@@H](Cc1ccc(O)cc1)C(N)=O)[C@@H](C)O)C(C)C)[C@@H](C)O
notes: Synthetic analogue, extended by Lys at the N-terminus; also called compound 44
B2: N^-1-[(4S)-4-carboxy-4-(19-carboxynonadecanoylamino)butanoyl]-Gly[Arg1,Arg17,Pro21,Pro27,His35]-h-amylin (peptide)
peptide: {C20 diacid-γGlu}-GRCNTATCATQRLANFLRHSSPNFGAIPSSTNVGSHTY-NH2
modifications: disulfide 3-8
SMILES: CC[C@H](C)[C@H](NC(=O)[C@H](C)NC(=O)CNC(=O)[C@H](Cc1ccccc1)NC(=O)[C@H](CC(N)=O)NC(=O)[C@@H]1CCCN1C(=O)[C@H](CO)NC(=O)[C@H](CO)NC(=O)[C@H](Cc1c[nH]cn1)NC(=O)[C@H](CCCNC(=N)N)NC(=O)[C@H](CC(C)C)NC(=O)[C@H](Cc1ccccc1)NC(=O)[C@H](CC(N)=O)NC(=O)[C@H](C)NC(=O)[C@H](CC(C)C)NC(=O)[C@H](CCCNC(=N)N)NC(=O)[C@H](CCC(N)=O)NC(=O)[C@@H](NC(=O)[C@H](C)NC(=O)[C@@H]1CSSC[C@H](NC(=O)[C@H](CCCNC(=N)N)NC(=O)CNC(=O)CC[C@H](NC(=O)CCCCCCCCCCCCCCCCCCC(=O)O)C(=O)O)C(=O)N[C@@H](CC(N)=O)C(=O)N[C@@H]([C@@H](C)O)C(=O)N[C@@H](C)C(=O)N[C@@H]([C@@H](C)O)C(=O)N1)[C@@H](C)O)C(=O)N1CCC[C@H]1C(=O)N[C@@H](CO)C(=O)N[C@@H](CO)C(=O)N[C@H](C(=O)N[C@@H](CC(N)=O)C(=O)N[C@H](C(=O)NCC(=O)N[C@@H](CO)C(=O)N[C@@H](Cc1c[nH]cn1)C(=O)N[C@H](C(=O)N[C@@H](Cc1ccc(O)cc1)C(N)=O)[C@@H](C)O)C(C)C)[C@@H](C)O
notes: Synthetic analogue, extended by Gly at the N-terminus; also called compound 47
B3: N^-1-[(4S)-4-carboxy-4-(19-carboxynonadecanoylamino)butanoyl]-Gly[Arg1,Arg17,Pro21,Pro27]-h-amylin (peptide)
peptide: {C20 diacid-γGlu}-GRCNTATCATQRLANFLRHSSPNFGAIPSSTNVGSNTY-NH2
modifications: disulfide 3-8
SMILES: CC[C@H](C)[C@H](NC(=O)[C@H](C)NC(=O)CNC(=O)[C@H](Cc1ccccc1)NC(=O)[C@H](CC(N)=O)NC(=O)[C@@H]1CCCN1C(=O)[C@H](CO)NC(=O)[C@H](CO)NC(=O)[C@H](Cc1c[nH]cn1)NC(=O)[C@H](CCCNC(=N)N)NC(=O)[C@H](CC(C)C)NC(=O)[C@H](Cc1ccccc1)NC(=O)[C@H](CC(N)=O)NC(=O)[C@H](C)NC(=O)[C@H](CC(C)C)NC(=O)[C@H](CCCNC(=N)N)NC(=O)[C@H](CCC(N)=O)NC(=O)[C@@H](NC(=O)[C@H](C)NC(=O)[C@@H]1CSSC[C@H](NC(=O)[C@H](CCCNC(=N)N)NC(=O)CNC(=O)CC[C@H](NC(=O)CCCCCCCCCCCCCCCCCCC(=O)O)C(=O)O)C(=O)N[C@@H](CC(N)=O)C(=O)N[C@@H]([C@@H](C)O)C(=O)N[C@@H](C)C(=O)N[C@@H]([C@@H](C)O)C(=O)N1)[C@@H](C)O)C(=O)N1CCC[C@H]1C(=O)N[C@@H](CO)C(=O)N[C@@H](CO)C(=O)N[C@H](C(=O)N[C@@H](CC(N)=O)C(=O)N[C@H](C(=O)NCC(=O)N[C@@H](CO)C(=O)N[C@@H](CC(N)=O)C(=O)N[C@H](C(=O)N[C@@H](Cc1ccc(O)cc1)C(N)=O)[C@@H](C)O)C(C)C)[C@@H](C)O
notes: Synthetic analogue, extended by Gly at the N-terminus; also called compound 46
B4: N^ε-[2-[2-[2-[[(4S)-4-carboxy-4-(19-carboxynonadecanoylamino)butanoyl]amino]ethoxy]ethoxy]acetyl]Lys[Arg1,Arg17,Pro21,Pro27,His35]-h-amylin (peptide)
peptide: K([AEEA-γGlu-C20 diacid])RCNTATCATQRLANFLRHSSPNFGAIPSSTNVGSHTY-NH2
modifications: disulfide 3-8; N-terminus assumed
SMILES: CC[C@H](C)[C@H](NC(=O)[C@H](C)NC(=O)CNC(=O)[C@H](Cc1ccccc1)NC(=O)[C@H](CC(N)=O)NC(=O)[C@@H]1CCCN1C(=O)[C@H](CO)NC(=O)[C@H](CO)NC(=O)[C@H](Cc1c[nH]cn1)NC(=O)[C@H](CCCNC(=N)N)NC(=O)[C@H](CC(C)C)NC(=O)[C@H](Cc1ccccc1)NC(=O)[C@H](CC(N)=O)NC(=O)[C@H](C)NC(=O)[C@H](CC(C)C)NC(=O)[C@H](CCCNC(=N)N)NC(=O)[C@H](CCC(N)=O)NC(=O)[C@@H](NC(=O)[C@H](C)NC(=O)[C@@H]1CSSC[C@H](NC(=O)[C@H](CCCNC(=N)N)NC(=O)[C@@H](N)CCCCNC(=O)COCCOCCNC(=O)CC[C@H](NC(=O)CCCCCCCCCCCCCCCCCCC(=O)O)C(=O)O)C(=O)N[C@@H](CC(N)=O)C(=O)N[C@@H]([C@@H](C)O)C(=O)N[C@@H](C)C(=O)N[C@@H]([C@@H](C)O)C(=O)N1)[C@@H](C)O)C(=O)N1CCC[C@H]1C(=O)N[C@@H](CO)C(=O)N[C@@H](CO)C(=O)N[C@H](C(=O)N[C@@H](CC(N)=O)C(=O)N[C@H](C(=O)NCC(=O)N[C@@H](CO)C(=O)N[C@@H](Cc1c[nH]cn1)C(=O)N[C@H](C(=O)N[C@@H](Cc1ccc(O)cc1)C(N)=O)[C@@H](C)O)C(C)C)[C@@H](C)O
notes: Synthetic analogue, extended by Lys at the N-terminus; also called compound 45
B5: N^ε1-[2-[2-[2-(19-carboxynonadecanoylamino)ethoxy]ethoxy]acetyl]-[Arg17,Pro21,Pro27]-h-amylin (peptide)
peptide: K([AEEA-C20 diacid])CNTATCATQRLANFLRHSSPNFGAIPSSTNVGSNTY-NH2
modifications: disulfide 2-7; N-terminus assumed
SMILES: CC[C@H](C)[C@H](NC(=O)[C@H](C)NC(=O)CNC(=O)[C@H](Cc1ccccc1)NC(=O)[C@H](CC(N)=O)NC(=O)[C@@H]1CCCN1C(=O)[C@H](CO)NC(=O)[C@H](CO)NC(=O)[C@H](Cc1c[nH]cn1)NC(=O)[C@H](CCCNC(=N)N)NC(=O)[C@H](CC(C)C)NC(=O)[C@H](Cc1ccccc1)NC(=O)[C@H](CC(N)=O)NC(=O)[C@H](C)NC(=O)[C@H](CC(C)C)NC(=O)[C@H](CCCNC(=N)N)NC(=O)[C@H](CCC(N)=O)NC(=O)[C@@H](NC(=O)[C@H](C)NC(=O)[C@@H]1CSSC[C@H](NC(=O)[C@@H](N)CCCCNC(=O)COCCOCCNC(=O)CCCCCCCCCCCCCCCCCCC(=O)O)C(=O)N[C@@H](CC(N)=O)C(=O)N[C@@H]([C@@H](C)O)C(=O)N[C@@H](C)C(=O)N[C@@H]([C@@H](C)O)C(=O)N1)[C@@H](C)O)C(=O)N1CCC[C@H]1C(=O)N[C@@H](CO)C(=O)N[C@@H](CO)C(=O)N[C@H](C(=O)N[C@@H](CC(N)=O)C(=O)N[C@H](C(=O)NCC(=O)N[C@@H](CO)C(=O)N[C@@H](CC(N)=O)C(=O)N[C@H](C(=O)N[C@@H](Cc1ccc(O)cc1)C(N)=O)[C@@H](C)O)C(C)C)[C@@H](C)O
notes: Synthetic analogue; also called compound 43
B6: N^ε1-[(4S)-4-carboxy-4-(19-carboxynonadecanoylamino)butanoyl]-[Arg17,Pro21,Pro27]-h-amylin (peptide)
peptide: K([γGlu-C20 diacid])CNTATCATQRLANFLRHSSPNFGAIPSSTNVGSNTY-NH2
modifications: disulfide 2-7; N-terminus assumed
SMILES: CC[C@H](C)[C@H](NC(=O)[C@H](C)NC(=O)CNC(=O)[C@H](Cc1ccccc1)NC(=O)[C@H](CC(N)=O)NC(=O)[C@@H]1CCCN1C(=O)[C@H](CO)NC(=O)[C@H](CO)NC(=O)[C@H](Cc1c[nH]cn1)NC(=O)[C@H](CCCNC(=N)N)NC(=O)[C@H](CC(C)C)NC(=O)[C@H](Cc1ccccc1)NC(=O)[C@H](CC(N)=O)NC(=O)[C@H](C)NC(=O)[C@H](CC(C)C)NC(=O)[C@H](CCCNC(=N)N)NC(=O)[C@H](CCC(N)=O)NC(=O)[C@@H](NC(=O)[C@H](C)NC(=O)[C@@H]1CSSC[C@H](NC(=O)[C@@H](N)CCCCNC(=O)CC[C@H](NC(=O)CCCCCCCCCCCCCCCCCCC(=O)O)C(=O)O)C(=O)N[C@@H](CC(N)=O)C(=O)N[C@@H]([C@@H](C)O)C(=O)N[C@@H](C)C(=O)N[C@@H]([C@@H](C)O)C(=O)N1)[C@@H](C)O)C(=O)N1CCC[C@H]1C(=O)N[C@@H](CO)C(=O)N[C@@H](CO)C(=O)N[C@H](C(=O)N[C@@H](CC(N)=O)C(=O)N[C@H](C(=O)NCC(=O)N[C@@H](CO)C(=O)N[C@@H](CC(N)=O)C(=O)N[C@H](C(=O)N[C@@H](Cc1ccc(O)cc1)C(N)=O)[C@@H](C)O)C(C)C)[C@@H](C)O
notes: Synthetic analogue; also called compound 48

Target: T1, human calcitonin receptor
Assay: SPA radioligand competition (125I-calcitonin), membranes of BHK cells with human calcitonin receptor
Outline: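 BHK hCTR membranes 35 ng/μL + SPA beads 0.05 mg/well; buffer 50 mM Hepes pH 7.4, 1 mM CaCl2, 5 mM MgCl₂, 0.1% OA, 0.02% Tween20. 120 min, 25° C., shaking. Scintillation count; IC50 by one-site binding competition.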

| IC50 [nM] | Binder |
| --- | --- |
| 4.87 | B1 |
| 15.5 | B2 |
| 9.53 | B3 |
| 14.8 | B4 |
| 2.64 | B5 |
| 30.9 | B6 |

Target: T1, human calcitonin receptor
Assay: ratio IC50 hCTR / IC50 hAmylin-R of the two SPA competition assays; reference: human amylin receptor
Outline: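 Membranes (35 ng/μL final) + SPA beads, 50 mM Hepes pH 7.4 buffer with 1 mM CaCl2, 5 mM MgCl₂, 0.1% OA, 0.02% Tween20; 120 min, 25° C, shaking; centrifuged, counted; IC₅₀ by one-site binding competition.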

| Ratio hCT/hAmylin binding | Binder |
| --- | --- |
| 17.7 | B1 |
| 44.9 | B2 |
| 48.9 | B3 |
| 26.8 | B4 |
| 34.7 | B5 |
| 69.7 | B6 |
